From paper PMC3371134 (Journal of Neurochemistry, 2012) come the findings set out here.

This assay deals with calmodulin-Sepharose (calmodulin coupled to Sepharose beads) (UniProt P62157 1-149). Briefly: pull-down.

On to APETEKAALAIQGKFRRFQKRKKDS [Pcp4l1 IQ motif synthetic peptide], for which the binding result is listed as “binds”.
